By Kd is commonly meant a measure of binding affinity in units of concentration. High values mean lower affinity, low ones higher affinity.

This test concerns the target FcγRIIb (UniProt P31994). Description: Octet QK384, FcγRIIb on Ni-NTA biosensors, 6 XTMAB-16 concentrations, 1:2 heterogeneous ligand model fit. In general terms: In BLI a coated tip is dipped into the sample, and binding shifts an interference pattern.

FcγRIIb, sequence (P31994 43-217): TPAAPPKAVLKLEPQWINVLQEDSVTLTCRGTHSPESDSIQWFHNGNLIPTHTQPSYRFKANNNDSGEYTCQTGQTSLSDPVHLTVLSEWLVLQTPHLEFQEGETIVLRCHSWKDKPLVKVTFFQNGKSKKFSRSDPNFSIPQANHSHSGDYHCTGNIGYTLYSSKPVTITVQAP

The substance XTMAB-16 (antibody) gave a dissociation constant (Kd) of 640 nM.
